Measured values from patent US20230060409.

Tested on: Ras

“mouse neurofibromin expressed from full-length mNf1 cDNA with exon 28 deleted” was tested. Which “Ras assays (GTP-Ras levels, p-ERK/ERK ratio, ELK1 transcriptional activity)” value did it give?
The value was “exon 28 deletion performed the worst in Ras assays as it retained the least function”.
